Data as given in patent publication US20180251489A1.

Biological target: mucosa-associated lymphoid tissue lymphoma translocation protein 1 (UniProt Q9UDY8)
Assay: enzyme inhibition assay, 100 nM MALT1

mucosa-associated lymphoid tissue lymphoma translocation protein 1, sequence (Q9UDY8 340-789): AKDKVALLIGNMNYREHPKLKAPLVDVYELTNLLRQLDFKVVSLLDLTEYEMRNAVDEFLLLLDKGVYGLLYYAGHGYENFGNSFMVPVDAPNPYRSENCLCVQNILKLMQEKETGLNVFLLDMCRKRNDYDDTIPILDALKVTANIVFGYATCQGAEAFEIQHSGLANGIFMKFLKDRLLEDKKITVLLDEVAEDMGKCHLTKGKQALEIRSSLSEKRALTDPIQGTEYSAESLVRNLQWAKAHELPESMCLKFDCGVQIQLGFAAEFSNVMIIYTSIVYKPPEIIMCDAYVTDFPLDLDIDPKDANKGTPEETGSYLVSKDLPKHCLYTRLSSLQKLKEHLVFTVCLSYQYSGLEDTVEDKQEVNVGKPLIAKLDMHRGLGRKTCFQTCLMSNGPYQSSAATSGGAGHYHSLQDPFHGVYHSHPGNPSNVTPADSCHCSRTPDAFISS

| Ki | Substance |
| --- | --- |
| 75 nM | (S)-N-((S)-1-Fluoro-6-guanidino-2-oxohexan-3-yl)-1-((4-morpholinobenzoyl)-L-valyl)pyrrolidine-2-carboxamide (peptide) |
| 52 nM | (S)-N-((S)-1-Fluoro-6-guanidino-2-oxohexan-3-yl)-1-((phenylcarbamoyl)-L-valyl)pyrrolidine-2-carboxamide (peptide) |
| 175 nM | (S)-N-((S)-1-fluoro-6-guanidino-2-oxohexan-3-yl)-1-((3-(4-methylpiperazin-1-yl)benzoyl)-L-valyl)pyrrolidine-2-carboxamide (peptide) |
| 15 nM | (S)-N-((S)-1-fluoro-6-guanidino-2-oxohexan-3-yl)-1-((3-(trifluoromethoxy)benzoyl)-L-valyl)pyrrolidine-2-carboxamide (peptide) |
| 58 nM | (S)-N-((S)-1-fluoro-6-guanidino-2-oxohexan-3-yl)-1-((3-morpholinobenzoyl)-L-valyl)pyrrolidine-2-carboxamide (peptide) |
| 27 nM | (S)-N-((S)-1-fluoro-6-guanidino-2-oxohexan-3-yl)-1-((4-(trifluoromethoxy)benzoyl)-L-valyl)pyrrolidine-2-carboxamide (peptide) |
| 132 nM | (S)-N-((S)-1-fluoro-6-guanidino-2-oxohexan-3-yl)-1-((4-(trifluoromethyl)benzoyl)-L-valyl)pyrrolidine-2-carboxamide (peptide) |
| 1180 nM | Benzyl (1-((S)-2-(((S)-1-fluoro-6-guanidino-2-oxohexan-3-yl)carbamoyl)pyrrolidine-1-carbonyl)cyclopentyl)carbamate (peptide) |
| 30 nM | Benzyl ((2S,3R)-1-((S)-2-(((S)-1-fluoro-6-guanidino-2-oxohexan-3-yl)carbamoyl)pyrrolidin-1-yl)-3-methyl-1-oxopentan-2-yl)carbamate (peptide) |
| 146 nM | Benzyl ((R)-2-((S)-2-(((S)-1-fluoro-6-guanidino-2-oxohexan-3-yl)carbamoyl)pyrrolidin-1-yl)-2-oxo-1-(pyridin-3-yl)ethyl)carbamate (peptide) |
| 53 nM | Benzyl ((S)-1-((2S,4R)-2-(((S)-1-fluoro-6-guanidino-2-oxohexan-3-yl)carbamoyl)-4-hydroxypyrrolidin-1-yl)-3-methyl-1-oxobutan-2-yl)carbamate (peptide) |
| 49 nM | Benzyl ((S)-1-((2S,4S)-2-(((S)-1-fluoro-6-guanidino-2-oxohexan-3-yl)carbamoyl)-4-hydroxypyrrolidin-1-yl)-3-methyl-1-oxobutan-2-yl)carbamate (peptide) |
| 158 nM | Benzyl ((S)-1-((S)-2-(((S)-1-fluoro-6-guanidino-2-oxohexan-3-yl)carbamoyl)-2-methylpyrrolidin-1-yl)-3-methyl-1-oxobutan-2-yl)carbamate (peptide) |
| 40 nM | Benzyl ((S)-1-((S)-2-(((S)-1-fluoro-6-guanidino-2-oxohexan-3-yl)carbamoyl)piperidin-l-yl)-3-methyl-1-oxobutan-2-yl)carbamate (peptide) |
| 76 nM | Benzyl ((S)-1-((S)-2-(((S)-1-fluoro-6-guanidino-2-oxohexan-3-yl)carbamoyl)pyrrolidin-1-yl)-1-oxo-3-phenylpropan-2-yl)carbamate (peptide) |
| 43 nM | Benzyl ((S)-1-((S)-2-(((S)-1-fluoro-6-guanidino-2-oxohexan-3-yl)carbamoyl)pyrrolidin-1-yl)-3,3-dimethyl-1-oxobutan-2-yl)carbamate (peptide) |
| 808 nM | Benzyl ((S)-1-((S)-2-(((S)-1-fluoro-6-guanidino-2-oxohexan-3-yl)carbamoyl)pyrrolidin-1-yl)-3-methyl-1-oxobutan-2-yl)(methyl)carbamate (peptide) |

| Ki | Substance |
| --- | --- |
| 40 nM | Benzyl ((S)-1-((S)-2-(((S)-1-fluoro-6-guanidino-2-oxohexan-3-yl)carbamoyl)pyrrolidin-1-yl)-3-methyl-1-oxobutan-2-yl)carbamate 2,2,2-trifluoroacetate (peptide) |
| 93 nM | Benzyl ((S)-1-((S)-2-(((S)-1-fluoro-6-guanidino-2-oxohexan-3-yl)carbamoyl)pyrrolidin-1-yl)-4-methyl-1-oxopentan-2-yl)carbamate (peptide) |
| 37 nM | Benzyl ((S)-1-cyclohexyl-2-((S)-2-(((S)-1-fluoro-6-guanidino-2-oxohexan-3-yl)carbamoyl)piperidin-1-yl)-2-oxoethyl)carbamate (peptide) |
| 44 nM | Benzyl ((S)-1-cyclohexyl-2-((S)-2-(((S)-1-fluoro-6-guanidino-2-oxohexan-3-yl)carbamoyl)pyrrolidin-1-yl)-2-oxoethyl)carbamate (peptide) |
| 55 nM | Benzyl ((S)-2-((S)-2-(((S)-1-fluoro-6-guanidino-2-oxohexan-3-yl)carbamoyl)pyrrolidin-1-yl)-2-oxo-1-(pyridin-3-yl)ethyl)carbamate (peptide) |
| 154 nM | Benzyl ((S)-2-((S)-2-(((S)-1-fluoro-6-guanidino-2-oxohexan-3-yl)carbamoyl)pyrrolidin-1-yl)-2-oxo-1-phenylethyl)carbamate (peptide) |
| 100 nM | N-((S)-1-((S)-2-(((S)-1-Fluoro-6-guanidino-2-oxohexan-3-yl)carbamoyl)pyrrolidin-1-yl)-3-methyl-1-oxobutan-2-yl)-1-methyl-1H-pyrazole-4-carboxamide (peptide) |
| 52 nM | N-((S)-1-((S)-2-(((S)-1-Fluoro-6-guanidino-2-oxohexan-3-yl)carbamoyl)pyrrolidin-1-yl)-3-methyl-1-oxobutan-2-yl)-2-methylthiazole-4-carboxamide (peptide) |
| 111 nM | N-((S)-1-((S)-2-(((S)-1-Fluoro-6-guanidino-2-oxohexan-3-yl)carbamoyl)pyrrolidin-1-yl)-3-methyl-1-oxobutan-2-yl)-2-morpholinothiazole-4-carboxamide (peptide) |
| 121 nM | N-((S)-1-((S)-2-(((S)-1-fluoro-6-guanidino-2-oxohexan-3-yl)carbamoyl)pyrrolidin-1-yl)-3-methyl-1-oxobutan-2-yl)-5-phenylthiazole-2-carboxamide (peptide) |
| 59 nM | N-((S)-1-((S)-2-(((S)-1-fluoro-6-guanidino-2-oxohexan-3-yl)carbamoyl)pyrrolidin-1-yl)-3-methyl-1-oxobutan-2-yl)isoquinoline-6-carboxamide (peptide) |
| 110 nM | N-((S)-1-((S)-2-(((S)-1-fluoro-6-guanidino-2-oxohexan-3-yl)carbamoyl)pyrrolidin-1-yl)-3-methyl-1-oxobutan-2-yl)isoquinoline-7-carboxamide (peptide) |
| 55 nM | N-((S)-1-((S)-2-(((S)-1-fluoro-6-guanidino-2-oxohexan-3-yl)carbamoyl)pyrrolidin-1-yl)-3-methyl-1-oxobutan-2-yl)quinoline-2-carboxamide (peptide) |
| 40 nM | N-((S)-1-((S)-2-(((S)-1-fluoro-6-guanidino-2-oxohexan-3-yl)carbamoyl)pyrrolidin-1-yl)-3-methyl-1-oxobutan-2-yl)quinoline-3-carboxamide (peptide) |
| 139 nM | N-((S)-1-((S)-2-(((S)-1-fluoro-6-guanidino-2-oxohexan-3-yl)carbamoyl)pyrrolidin-1-yl)-3-methyl-1-oxobutan-2-yl)quinoline-4-carboxamide (peptide) |
| 64 nM | benzyl ((S)-1-(((S)-1-(((S)-1-fluoro-6-guanidino-2-oxohexan-3-yl)amino)-3-hydroxy-1-oxopropan-2-yl)amino)-3-methyl-1-oxobutan-2-yl)carbamate (peptide) |
